Earlier results in PMC5419078.
Where two headings read alike, the source gives them in different places.

Assays:
[1] = target: infliximab
[2] = target: infliximab; test: SPR
[3] = target: etanercept ECD (Homo sapiens) (UniProt P20333); test: SPR
[4] = target: etanercept ECD (Homo sapiens) (UniProt P20333)

Sequence of TNF (P01375 77-233): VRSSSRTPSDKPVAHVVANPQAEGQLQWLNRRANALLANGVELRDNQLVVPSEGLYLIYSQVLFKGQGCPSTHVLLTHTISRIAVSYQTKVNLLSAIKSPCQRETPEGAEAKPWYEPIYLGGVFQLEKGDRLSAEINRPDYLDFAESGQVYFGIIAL
Sequence of infliximab (main, as listed by the source, chain 1 of 2, other chains not shown): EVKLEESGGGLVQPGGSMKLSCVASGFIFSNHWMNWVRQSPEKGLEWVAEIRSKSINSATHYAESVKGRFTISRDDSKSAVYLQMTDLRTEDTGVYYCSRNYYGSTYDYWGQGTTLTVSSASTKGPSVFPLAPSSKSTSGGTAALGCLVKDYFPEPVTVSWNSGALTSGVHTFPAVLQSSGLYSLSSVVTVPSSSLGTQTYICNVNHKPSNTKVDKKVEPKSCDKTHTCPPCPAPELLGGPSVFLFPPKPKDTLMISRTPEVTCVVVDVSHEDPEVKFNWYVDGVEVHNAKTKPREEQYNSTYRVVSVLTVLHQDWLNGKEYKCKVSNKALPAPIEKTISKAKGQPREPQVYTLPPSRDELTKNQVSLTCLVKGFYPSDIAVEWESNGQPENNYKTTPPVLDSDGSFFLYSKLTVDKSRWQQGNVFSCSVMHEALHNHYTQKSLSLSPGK

Kd [1]: 0.0886 nM
Kd [2]: 0.0273 nM
Kd [3]: 0.0118 nM
Kd [4]: 0.00566 nM
Substance: TNF (from UniProt P01375)
